Test results as given in patent US20160041181A1, “NMR ASSAY TO SCREEN PROTEIN-PROTEIN INTERACTION INHIBITORS” (RUTGERS, THE STATE UNIVERSITY OF NEW JERSEY, priority 2013, published 2016).
Non-standard residues stand in square brackets, D forms with d. No end group written: not given here.

Tests used:
Assay type in all cases: binding, influenza A/Udorn/307/1972 (H3N2)
NS1A ED [1] = molecular target: T1, NS1A ED (Influenza A virus, UniProt P03495); conditions: 200 uM ED, 0, 50, 100, 200, 300 uM test peptide
T1 construct: made in house; host or cells: Escherichia coli BL21(DE3)-Gold, pET21_NESG vector
T1 sequence (P03495 85-215): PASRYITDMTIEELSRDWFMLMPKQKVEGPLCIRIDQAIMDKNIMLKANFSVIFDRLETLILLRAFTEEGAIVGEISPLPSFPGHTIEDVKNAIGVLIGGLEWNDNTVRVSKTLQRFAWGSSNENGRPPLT

NS1A ED [2] = molecular target: T1, NS1A ED; experiment: 1D 19F NMR assay of 5FW-labeled NS1A ED with designed peptide
From the text: In one exemplary embodiment, the candidate compound is a D-peptide having a sequence dN-Y-F-Y-S-L-F-dQ-G (see FIG. 14). The peptide has the ability to bind NS1A at the site normally used to sequester CPSF30. This same site on NS1A is also responsible for cooperative homodimerization interactions that contribute to an alternative cooperative mechanism by which ED:ED domain interactions contribute to the free energy for binding dsRNA by NS1A.
One-dimensional (1D) ^19F NMR spectroscopy was performed locked and at 20° C. on a Varian INOVA 500 MHz spectrometer equipped with a room temperature 5-mm ^1H/^19F switchable probe at a frequency of 470.18 MHz. All ^19F NMR spectra were acquired using VNMRJ 2.1B and referenced to external neat trichlorofluoromethane, CFCl3. Typical 1D ^19F NMR acquisition parameters were as follows: a 20,000 Hz sweep width (42.5 ppm), a 0.35 s acquisition time, a 5 s relaxation delay time, and a 5.0 μs 90° pulse length.
^19F NMR is an ideal assay for characterizing binding and inhibition of the NS1A protein. Using 1D ^19F NMR, it was possible to identify the binding location of a designed peptide according to its proximity to the nearest ^19F labeled Trp amino acids (see FIG. 16A vs. FIG. 16B).

NS1A ED [3] = molecular target: T1, NS1A ED; experiment: Dissociation constant for homodimerization of NS1A ED (dimer-monomer equilibrium); conditions: low salt pH 8 buffer

## dAsn-Tyr-Phe-Tyr-Ser-Leu-Phe-dGln-Gly ([dN]YFYSLF[dQ]G) [test peptide, designed D-amino acid capped peptide based on the CPSF30 helix …]
NS1A ED [1]; binding site
  exchange regime at the binding site (15N-1H HSQC): slow-exchange, indicative of strong binding
NS1A ED [1]; other residues of the ED
  exchange regime at other residues of the ED (15N-1H HSQC): fast-exchange, or weak binding
NS1A ED [1]; residue W187
  exchange regime of residue W187 (15N-1H HSQC): slow-exchange indicative of tight binding
NS1A ED [2]; Trp102 and Trp203, listed as dAsn-Tyr-Phe-Tyr-Ser-Leu-Phe-dGln-Gly
  19F chemical shift change of the Trp102 and Trp203 resonances: no significant impact
NS1A ED [2]; Trp102 and Trp203, listed as dN-Y-F-Y-S-L-F-dQ-G
  19F chemical shift change of the Trp102 and Trp203 resonances: no chemical shift perturbations
NS1A ED [2]; Trp187, listed as dAsn-Tyr-Phe-Tyr-Ser-Leu-Phe-dGln-Gly
  19F chemical shift change of the Trp187 resonance: strong ^19F chemical shift change
NS1A ED [2]; Trp187, listed as dN-Y-F-Y-S-L-F-dQ-G
  19F chemical shift change of the Trp187 resonance: strong chemical shift perturbations

## 5fW NS1A ED: NS1A effector domain biosynthetically labeled with 5-fluoro-tryptophan
NS1A ED [3]
  Kd: 7 ± 5 µM
